According to patent US20240034784A1 (published 2024):

Experiments:
hClaudin18.2 = hClaudin18.2 (human, UniProt P56856 1-261); test: FACS
CLDN18.2 = CLDN18.2 (human, UniProt P56856 1-261); test: FACS

B1: IMAB362 (antibody, V domains shown)
VH: QVQLQQPGAELVRPGASVKLSCKASGYTFTSYWINWVKQRPGQGLEWIGNIYPSDSYTNYNQKFKDKATLTVDKSSSTAYMQLSSPTSEDSAVYYCTRSWRGNSFDYWGQGTTLTVSS
VL: DIVMTQSPSSLTVTAGEKVTMSCKSSQSLLNSGNQKNYLTWYQQKPGQPPKLLIYWASTRESGVPDRFTGSGSGTDFTLTISSVQAEDLAVYYCQNDYSYPFTFGSGTKLEIKR
For B1, which EC50 (hClaudin18.2) is on record?
The EC50 was 6.72 nM.

What about the EC50 (CLDN18.2) of the same binder?
Its EC50 is 19.1 nM.
